According to article PMC13344149, “One-step purification of a bioactive PAK1-derived peptide” (Analytical biochemistry, 2025):

Experiments:
[1] = molecular target: T1, Cdc42 labelled with the extrinsic fluorophore sNBD (UniProt P60953 1-191, sNBD fluorophore (site not stated)); experiment: other fluorescence titration; Cdc42 labelled with the extrinsic fluorophore sNBD, PBD46 titrated; heat-purified and conventional PBD46 compared; settings: both partners purified
T1 construct: Cdc42, small GTPase; also called sNBD-labeled Cdc42

[2] = molecular target: the molecule itself; experiment: LC-MS; LC-MS of the heat-treated PBD46 sample; major species at 10.23 kDa

T1 sequence (P60953 whole entry): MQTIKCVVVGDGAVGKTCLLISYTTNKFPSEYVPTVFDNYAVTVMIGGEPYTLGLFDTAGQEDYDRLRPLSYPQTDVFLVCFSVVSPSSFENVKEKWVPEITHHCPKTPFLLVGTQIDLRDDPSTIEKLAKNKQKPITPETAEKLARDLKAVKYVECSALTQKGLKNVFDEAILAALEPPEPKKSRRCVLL

B1: PBD46, 46-residue peptide from PAK1 (PAK1 CRIB domain, residues 67-112) (peptide, UniProt Q13153 67-112, looked up)
chain: KKEKERPEISLPSDFEHTIHVGFDAVTGEFTGMPEQWARLLQTSNI
notes: The heat-purified and the conventionally purified sample are the same construct from the same host; also called PAK1-derived peptide; heat-purified PBD46; source: E. coli, as GST-PBD46
For B1, the Kd [1] was roughly 83 nM and the “stoichiometry N” value [2] was 2.
